Experimental data: the supplement of paper PMC12764529
± gives the half width of the 95% confidence interval.

Assays:
[1] = folding stability dG unfold (combined trypsin and chymotrypsin); higher = more stable
In short: (§1)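 Only designs with AlphaFold2 dimer inter-PAE above 15 were retained; each was a mini-protein under 80 residues with no cysteine, in a PA-tagged cDNA display construct. After digestion with trypsin and chymotrypsin and sequencing, K50 was inferred by Bayesian fitting of counts, and unfolding free energy was derived per protease or combined against a sequence-predicted unfolded-state K50 and a shared folded-state K50.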

[2] = folding stability dG unfold from trypsin proteolysis; higher = more stable
In short: as §1

[3] = folding stability dG unfold from chymotrypsin proteolysis; higher = more stable
In short: as §1

Sequence	folding stability dG unfold [1] [kcal/mol]	folding stability dG unfold [2] [kcal/mol]	folding stability dG unfold [3] [kcal/mol]
SAGGSAGAPLVLAEVELDPETGEVRIRVYDPVTGKVYEYTTPGSLADAIREIERETGIPITEVVVASAGGSA [r15_101_TrMRF]	3.63 ± 0.077	3.47 ± 0.099	3.73 ± 0.073
SAGGSAGDPSLPQPQYIAFLLVTKPGGVEEPLEVEVKTEEEAEKIAQEVRDAGYEVELELRPAALLSAGGSA [r15_906_JUSTAS]	1.44 ± 0.38	1.72 ± 0.16	0.945 ± 0.28
SAGGSAGEIEGEEAAKLVEDALRALDPNVRVEYEPLPGEKPLLLVRVYRVDPESGAETPLATLLIGSAGGSA [r15_682_TrMRF]	2.4 ± 0.077	1.78 ± 0.05	2.69 ± 0.066
SAGGSAGETVYRVKIRVNGEELEIEVSAEELEALKALPGLEIELVRVEPAPPPEREETVVPEEEEESAGGSA [r15_443_TrROS_Hall]	3.43 ± 0.12	3.43 ± 0.17	3.36 ± 0.13
SAGGSAGGAANIPADQTLEFPTPDGYRRRLTYYPDEGLLVAEYVNPADGTPTFYTFDIPPDSTLSAGGSAGG [r6_406_TrMRF]	1.21 ± 0.057	0.864 ± 0.048	1.43 ± 0.084
SAGGSAGGAEIVEIEVRKEKRPDGKEVLTVKVKIKLENGEEIEVTVREGMTLEEALKKAKELLKSAGGSAGG [r6_986_TrROS_Hall]	2.56 ± 0.14	2.1 ± 0.086	2.75 ± 0.12
SAGGSAGGAELKPVGNDPETGKTAVILLKKPDPTGLVLALEGLSPEELKKLAEIPGYEAVAVLASAGGSAGG [r6_185_TrMRF]	0.787 ± 0.071	0.996 ± 0.037	0.213 ± 0.23
SAGGSAGGAPQGSTSSLTDPSTGLRYASTNPPGTSSSFTFPPSVSPEEVAARLRAQGVAGLNLSSAGGSAGG [r6_83_JUSTAS]	0.0679 ± 0.081	-0.81 ± 0.35	0.339 ± 0.073
SAGGSAGGAVDPALVSEETTSTSYYPDGTVVTTTTLKVPGKGTTVTLTTVTPLPPSSPSPSASLSAGGSAGG [r6_758_JUSTAS]	0.761 ± 0.23	1.13 ± 0.043	0.437 ± 0.077
SAGGSAGGDALKELIKNMPPGEPRKITIPIKYEDGRYYRIDIEIQMNPNNGEWQLDIDIEPYPPSAGGSAGG [r6_545_TrROS]	1.91 ± 0.25	0.881 ± 0.089	2.46 ± 0.054
SAGGSAGGDEKAKEELKKKKPPKIELTVKVEVEVSEDGTVKVKAKVFGPDGKLIAEAEFTFKVKSAGGSAGG [r6_419_TrROS_Hall]	2.58 ± 0.38	1.67 ± 0.19	2.5 ± 0.12
SAGGSAGGDIEVRPVGVVPTPDGRLVRVEEVTFPETGRTLLVAVDLEPGRVYVFDPETGEWREESAGGSAGG [r6_114_TrMRF]	1.41 ± 0.075	0.502 ± 0.091	1.76 ± 0.02
SAGGSAGGDKAVIVDFNPIEPEAVIYFPKTGKAIKFKFDSLEELRDSIEPSGIPVEIVITPPELSAGGSAGG [r6_27_TrMRF]	0.141 ± 0.19	-0.138 ± 0.19	0.196 ± 0.25
SAGGSAGGDPNDKPMKFELIETFTIPGNLNEAKDFLEDLLPPNWAINVEQEPGMITITIYKMKDSAGGSAGG [r6_953_TrROS]	2.22 ± 0.2	1.78 ± 0.17	2.23 ± 0.073
SAGGSAGGDRIKIRFPDYRYEIEIPPGIESITTIQFHKDGWFTLTIPGNGQQIKIPIPPPDDDPSAGGSAGG [r6_370_TrROS]	1.51 ± 0.24	1.23 ± 0.057	1.73 ± 0.15
SAGGSAGGDTLTIVVEGMSAEELAALLKELFPDAEVTVTEVGEPRLVTVTVTVKVETEFELPEESAGGSAGG [r6_607_TrROS_Hall]	2.28 ± 0.1	2.13 ± 0.099	2.36 ± 0.087
SAGGSAGGEEEELTEEERRELERRRRRLEEERRRRRPPRPRLRLTLTVRLPDGSTVTLEVEIRLSAGGSAGG [r6_844_TrROS_Hall]	3.16 ± 0.14	2.2 ± 0.061	3.73 ± 0.056
SAGGSAGGEEEYYEIEIVLPKEKAEEILEELKKKLPEGWEIVSVEVVEVDEDGYVRLRIVVKRTSAGGSAGG [r6_340_TrROS_Hall]	4.52 ± 0.3	5.01 ± 0.53	4.21 ± 0.14
SAGGSAGGEEIAKKLRDLAKKLGLDVEIKKIEVTKYPLPEGDENKEEKWVTTITITVNGKKITLSAGGSAGG [r6_686_TrROS_Hall]	2.37 ± 0.081	2.22 ± 0.053	2.53 ± 0.061
SAGGSAGGEELAKRLKELFPNAKIVEIKYDKKTKKVTIKVELEPGMSEEQRERLRKLLEELLKKSAGGSAGG [r6_97_TrROS_Hall]	3.07 ± 0.15	3.13 ± 0.17	2.85 ± 0.099
SAGGSAGGEIKAKVPYEKYPKYYKVKVEIYDPNTKKKIEYEALFPKGTKISAEEIAKKIVKKIKSAGGSAGG [r6_233_TrMRF]	1.26 ± 0.24	0.876 ± 0.086	1.54 ± 0.085

Sequence	folding stability dG unfold [1] [kcal/mol]	folding stability dG unfold [2] [kcal/mol]	folding stability dG unfold [3] [kcal/mol]
SAGGSAGGEIPADAEIEEFEFGGKPYFLVRFPDGTAALYERKGDKWELIATVPVPPDSRIFFKGSAGGSAGG [r6_475_TrMRF]	1.12 ± 0.041	0.946 ± 0.037	1.19 ± 0.086
SAGGSAGGEIRERLRELIEQLPEEELVVRIRRNGEEVELTFRTREDLEAALEANPEAEIEIVRRSAGGSAGG [r6_421_TrROS_Hall]	3 ± 0.058	2.02 ± 0.023	3.35 ± 0.037
SAGGSAGGEISFDPETGKLTILAPSSISPDAIKKAIEEAGIPFKITSVSYIPDPKTLKVEYEISSAGGSAGG [r6_395_TrMRF]	0.719 ± 0.19	0.841 ± 0.025	0.249 ± 0.29
SAGGSAGGEKTTVLVRVELYLEDTEVVELPDFVFTDLTEEQVLEEVRKLGLPDNVKVEIIPLPASAGGSAGG [r6_88_TrMRF]	2.47 ± 0.11	2.53 ± 0.073	2.46 ± 0.11
SAGGSAGGELELELTVRLPNGLEVRIRARVKFDEETNEWTITEIEIEIRPLPPPPVLDKDGKLVSAGGSAGG [r6_506_TrROS_Hall]	2.93 ± 0.47	3.24 ± 0.19	3.04 ± 0.31
SAGGSAGGETITVKVKIKNEDGEEIEVEAEVTKNKDGSYTITIKNKETGETKVVPNATIEEVEPSAGGSAGG [r6_254_TrROS_Hall]	1.93 ± 0.18	1.59 ± 0.12	2.19 ± 0.18
SAGGSAGGGDLVVYRLEVRRFEPGTGRLVETRSRTVVVPKEDLPELLERIPPGYEVLRIEAFPESAGGSAGG [r6_776_TrMRF]	0.494 ± 0.11	0.636 ± 0.067	0.361 ± 0.16
SAGGSAGGGFVTIEVEITEVVGKTKDEEGKPHPGDPNDPSGYVKLPPFPVKVPSSPEEYAALLSSAGGSAGG [r6_219_JUSTAS]	0.301 ± 0.16	0.551 ± 0.076	-0.31 ± 0.62
SAGGSAGGGIEEELRRVLPEDATVTIEEVPERPLLVVTVTFPERAETRTFTFSPESPEKLIEALSAGGSAGG [r6_612_JUSTAS]	0.679 ± 0.12	0.82 ± 0.049	0.628 ± 0.12
SAGGSAGGGITAKEAAELLEKYLKEKGYDYEVKIEEVDPVNPTVKITVTFPDGSKLEITLPIVDSAGGSAGG [r6_617_TrMRF]	3.09 ± 0.2	3.02 ± 0.16	3.21 ± 0.34
SAGGSAGGGKVKVELEPLEDDSYRLRITVELPDGSKIEKPVILPSNVPPELSAEKVAEEILKKESAGGSAGG [r6_895_TrMRF]	0.228 ± 0.24	0.378 ± 0.089	-0.117 ± 0.34
SAGGSAGGGMGPASFYIVTVDPNNPNVTKVESLSPSVDISLYRKKPFPIKTFSASNIEKLLKELSAGGSAGG [r6_864_JUSTAS]	0.619 ± 0.11	0.334 ± 0.12	0.791 ± 0.18
SAGGSAGGGMLNGLLEKLLLAEPVEVDPVTTTVTPSPNGTVTTTPVYSTADDSVLTETQTTPVASAGGSAGG [r6_326_JUSTAS]	-0.0634 ± 0.14	0.341 ± 0.057	-0.574 ± 0.19
SAGGSAGGGMNATPKKIKVTITITDPSGNKTTVTREFDSEEEAEKFVKELLPPNRSYTVTYEPESAGGSAGG [r6_290_JUSTAS]	2.56 ± 0.068	2.94 ± 0.074	2.075 ± 0.017
SAGGSAGGGMSFTLTSEKKVPGVNVTLTTVTGPGVTITYDPATGKATVEFPDSVTTVPLSSITTSAGGSAGG [r6_512_JUSTAS]	0.597 ± 0.099	0.573 ± 0.024	0.359 ± 0.16
SAGGSAGGGMSLEAPIGEIEKPEGTDTVVITVYENGKWHTIPLPNFKNIKIEKDPNSDVVTILLSAGGSAGG [r6_806_JUSTAS]	1.52 ± 0.18	1.29 ± 0.1	1.71 ± 0.13
SAGGSAGGGMTPEEARALAEAAGYEDVEVTVLSRDPENNVTVVEVTARAPGGGGAASVGTYTAPSAGGSAGG [r6_699_JUSTAS]	-0.396 ± 0.18	-0.77 ± 0.21	-0.245 ± 0.27
SAGGSAGGGNWERVEFTFTKRVYDPKNGKPMKDVMVEIDVYRDPNEGALEIEIEMPPGFDYIMISAGGSAGG [r6_206_TrROS]	3.93 ± 0.29	2.79 ± 0.28	4.23 ± 0.23
SAGGSAGGGPKVTVEVTESKVYELEDGSYVAVNTYTVTFEAEGKTVKVTFYRTFPKGFAGGPFSSAGGSAGG [r6_799_TrMRF]	2.42 ± 0.17	2.28 ± 0.064	2.57 ± 0.14
SAGGSAGGGRAEILVEPVEPEPRARVVIRLEGSGRLVVFPVEEPLEPEHVEEAVEAAIKALEENSAGGSAGG [r6_330_TrMRF]	0.393 ± 0.065	-0.26 ± 0.17	0.647 ± 0.013
SAGGSAGGGSLSKPKKYELVATFTFPGTVEEAKEFLEKLLPEDWKVEIEETPDFLKIKLYKRLDSAGGSAGG [r6_952_TrMRF]	4.06 ± 0.063	4.07 ± 0.13	4.07 ± 0.049
